Assay [1] addresses His-tagged retrolinkin (aa 31–460) (mouse, UniProt Q8BHE4 31-460). In words: pull-down.
Assay [2] has as its target mouse retrolinkin amino-terminus (amino acids 31–460) fused to GST (mouse, UniProt Q8BHE4 31-460). In words: pull-down.

mouse retrolinkin amino-terminus (amino acids 31–460) fused to GST, sequence (Q8BHE4 31-460): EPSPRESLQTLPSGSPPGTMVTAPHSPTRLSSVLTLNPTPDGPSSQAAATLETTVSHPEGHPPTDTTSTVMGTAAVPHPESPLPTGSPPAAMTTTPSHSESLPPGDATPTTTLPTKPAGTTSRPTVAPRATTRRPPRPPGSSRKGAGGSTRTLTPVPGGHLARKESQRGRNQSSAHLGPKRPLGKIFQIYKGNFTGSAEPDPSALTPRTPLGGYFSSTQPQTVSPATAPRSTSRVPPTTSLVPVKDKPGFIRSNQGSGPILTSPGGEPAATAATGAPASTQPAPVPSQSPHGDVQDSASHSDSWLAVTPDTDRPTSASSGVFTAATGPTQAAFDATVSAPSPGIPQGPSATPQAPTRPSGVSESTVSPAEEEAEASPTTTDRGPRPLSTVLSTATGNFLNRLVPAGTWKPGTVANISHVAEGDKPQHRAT
His-tagged retrolinkin (aa 31–460), sequence (Q8BHE4 31-460): as above

B1: GST-tagged endophilin A1 SH3 domain (aa 295–346) (domain or fragment)
chain: not shown
B1: the binding result in assay [1] is reported as “binds”.

B2: recombinant His-tagged endophilin A1 (natural protein, mouse, UniProt Q62420 1-352, looked up)
chain: MSVAGLKKQFHKATQKVSEKVGGAEGTKLDDDFKEMERKVDVTSRAVMEIMTKTIEYLQPNPASRAKLSMINTMSKIRGQEKGPGYPQAEALLAEAMLKFGRELGDDCNFGPALGEVGEAMRELSEVKDSLDMEVKQNFIDPLQNLHDKDLREIQHHLKKLEGRRLDFDYKKKRQGKIPDEELRQALEKFDESKEIAESSMFNLLEMDIEQVSQLSALVQAQLEYHKQAVQILQQVTVRLEERIRQASSQPRREYQPKPRMSLEFATGDSTQPNGGLSHTGTPKPPGVQMDQPCCRALYDFEPENEGELGFKEGDIITLTNQIDENWYEGMLHGQSGFFPINYVEILVALPH
Turning to B2, in assay [2], the binding result is “binds”.

(Values after PMC3183022 (Molecular Biology of the Cell, 2011).)
